B1: 76 (protein, listed as Polymorphum gilvum)
chain: MAKKIDIFNHIWPEPFFKALIAHIGEMTDITMRSGAVPMMTNLDRRFEVMDMFGPDYMQVLSLASPPLEKLADPAKALELSRIGSDSLAELCQRYPERFPAFIGTAPLSNPAAVVGECRRAIEDLGAAGMQIFTNVAGKPLDLAEFEPFFEYMASAGKPVWLHPARGEAFADYQTEKRSEYEIWWTFGWPYETSAAMARLVFSRMFDKYPGLKVITHHAGGMVPFFEGRVGPGWDQMGARTTDRDLAAVRKALKRPHLDYFKEFYADTASFGSRKAIEHAIEFFGEDRVLFASDAPFDPEGGPMYIRETMRCIDSLDLTDAQRRKIYHGNATALLGLSL
B2: 71 (protein, listed as Burkholderia dolosa)
chain: MARAGHRAARTRQSRPGDRTMTCSCCMSAGRRRVLGAFAALAGAPKGPRAASAAQPAAASKPTRGDATARNRHSRALLPGKASASWSATKASGSGGAFAWDDTTFTFRTPAGGLGPLPMKFIDVDARLRDMDASGVDVQALSLSVPMAYWGDRPFNAKLARAWNTAASRVHVRAPDRFVVLATLPMLDATDAIDELERASELPGVRGVYMGTNIDNRDLDDPRFAPVFARIEQLGLPVFLHPQQTVGGARLGDFYLSNLLGNPFDTAIAASHLILGGVLDRHPALHFTLPHAGGALPILVGRLDAGWTVRAETRRLAHQPSGYLRRFSYDTVSHSGPVLNFLIENVGIDRLVLGSDYCFDMGYEQPVRFLDRLDLTPDERAMVIGGNAGRLLRI
B3: 2 (protein, listed as Serratia sp.)
chain: MAKIICLEEHTLDKALVMASMPAALEQAPFLSDWGKTVTDGNLPDRSRPQIEKNDLINIKGADIGRGRLDDMDVAGITMQVLSVGGFPHLISAAEGVDLNRAANDRLADAVNAHPDRFAAFATLPWAQPDSAEKELERAVKELGFKGALLNGRPSTHFLDHPDYDGLLARFNALGVPLYLHPGLPVRSVQQAYYGGFSDEVTARLSMFGWGWHHEAGIHLLRLILSGAFDKYPNLQVISGHWGEMLPFWLQRLDDSLPQAATGLRRTIAQTFKEQVYVTPSGMLTLPHFQFIYALLGAERIIFSVDYPYQTLDGVKAFIQSLPVPEEAKEAIAFRNAERLLGLTS
B4: 75 (protein, listed as Ectocarpus siliculosus)
chain: MAKIDSYTHFACPAFMDHLEAESGHPMVFRGLFSSIPELSDIDLRIRYMDEHGIDVHCLVPLPWLECEPGLHADEGKALEACRIANDEMARVVARFPDRLIGVALIPTTTEQAMIQETTRAVKELGMAGVALFVGPTAKPPDMACFEGLYRTCEELGAVVWMHPCRPQSYADYDSYKGEGSKHQIWNTFGWIYDTSVAMVHIALAGVFRRYPGLKVVTHHHGAMVPFFTARFDTQRRNFQEVEGDDLLEDLRLFYCDTATFGESAANIQQAIDFFGKSQVLFGTDTPMDMGTRGMFTRTTIASVEALGAAPEDKESFYAGNVLDMLGERFAGISGARGAVAARPKGDSTRIAASL
B5: 64 (protein, listed as Achromobacter piechaudii)
chain: MAIQKIDMHAHFFPPITRQEAAALDPVNAPWLRPDADGATGQIMAGEREFRPVDATLWDPALRIEQMDRHGVDVQILCATPIMFGYTYPARPAADWAARMNDLALEHCAYAPSRLKALAQVPLQDLELACQEASRARAAGHLGVQIGNHVGPRDLDDETLVQFLIHCANNDIPVLVHPWDMMTDGRMKKWMLPWLVSMPAETQLGILSLILSGAFERIPRSLKLCFAHGGGSFAYLLGRVDNAWRHRDIIRQDCPQLPSSYTDRFYTDSAVFDPRSLRLLIDVMGEDRVLLGSDYPYPLGEQEVGRLVAHAELVPEVQQKILFRNTMTFFGLQPGLQPGLQS
B6: 68 (protein, listed as Hoeflea phototrophica)
chain: MAIIDAHTHTLCPAVNEKVAGTIKPDSVPYQRDMSPESKEQDHTQFPELKIMFNQVERRLADMARMGIDRQVIAPAPGQQHYWAEPKLLAEISALQNDHVAELVARAPDRFAGIGTLPMTDPDAAVAEITRATRELGLRVFQIDSRVMERELSDASLDPIYAALEAAGAGLMIHPLGFSNGERLTPFFMVNSVAQPLEELLAFNHLVFGGVLDRFPKLKVYIAHGGGFAPFYIGRFDHAWKVRPEVNRLTPSAPSTYLRRIYFDTCVYRTDHIETLVRTVGADRVMLGSDYPFDMGDTDPLGLLNACQGLSDDEKATISSKVAIDFFGLET
B7: 72 (protein)
chain: MADCPCCVSPKRRRLLGSVSAIAAGMMAGLPALAAQPSTAAAGTGKPLSIDIHAHYYSESFLGLLGGEGKQFGGHFFRNDDSFTFQTPAGGLGPLPMKFIDVEQRVRDMDNSGVDVQAISLSVPMVYWADRTLNAKLARAWNTAASDVHRKHPTRFVVLATLPMLNANDAIDELEFAAGLPGVRGIYMGTNINNRDLDDPLFSPIFKRIEQLNLPIFLHPQQTVGGARLADFYLSNLLGNPFDTAIAASHLILGGVLDKYPALHFSLPHAGGALPILVGRIDAGWSMRSETKRVAQKPSSYLRRFSYDTISHSGPTLDFLIRNIGADRLVLGSDYCFDMGYEQPVRFLDRLALPDDQKRMVVGGNAARLLNL
modifications: Cupriavidus necator
B8: 3 (protein, listed as Lactobacillus plantarum)
chain: MAKLITVEEHFESAAVTAAMRQAVGNAVLPAVSPALRQYMRDNLPSPAIMQDTQHERLAFMAQYGIDMQVLSYGNSSPQNLSPEQAVPLSQLANDELAKAVVAHPDRYAGLAVLPVGDPQAAVAELNRAVTTLGLRGVLLKGNYQNKFFDEPFFLPIFEAAAALDVPVYFHPSFIPQAVTSHYFESNQWSDVVTGILSSAGYGWHMDVGIQVIRMIASGIFDKLPGLKLISGHWGELVPLFLERLDDELTTYTDLQYPFSTYYRHNVYVTPSGILSAPQLQFMLAEMGADHLMYSIDYPYKQPETSGSFLDIADLTDEQRAQIAFGTATTLFKL
B9: 61 (protein, listed as Gordonia amarae)
chain: MATGAGSGVPSPADRVIVRSPGVIDVHAHAVLPMSLGCAGAAGPEIGYREDGSPFFRVGEYVLNGVRYEGSAFMDPEVRVAAMDAAGIGLQMISPNPITYFTRLDARSATDYARAHNDAIAEAAGRHPGRLVGAAQLPMQDVPAAIAELERSVRELGLVAAYIDTDIGDRTLDAPELDDFYSAAVELDVPVFIHPSPVGQEGPPDDTRLRRFDLDLLLGFSYDETLAVAALVFGGVLERHPALDVCLSHGGGTLAFVAGRFARAVAKPRAWVPEFLVENGIESYLRRLWLDTHVHSAGSLRLLIDTVGTDRLVFGTNFAGWDADGATEVDALGDLRETTTANAAHLLRLGRA
B10: 60 (protein, listed as Catenulispora acidiphila)
chain: MARGFVRTAVVPGFWDAGWRGAGQPGGMRVDVHAHLFPAAYLDLLDDFRQDGGVGTREVRALGGGDGERELRLRLAAMDAVGVDVQLLSTCPQGPYTGDPTAAVEAARCANVALAQTVAQYPERLRALAALPLPHILASVDELNRAMEQDGMLGAAVGTSILGRPLSHPDFEPLFAALNRRKGVLFVHPIGESAGSPLMQASKLDRVIGYAAEVSTAILQLFQAGLTVKYPDIRIIAPHMGGYLPFLIQRLDRHRDWYLPKDAPSAGQLMRGIAYDTANPLPAALRLTAEVVGPERLLLGTDYPFEQGPSLRDHIEYILAAGLPEAQAKMIVDVNAADFLDMRSGAEQPPV
B11: 70 (protein, listed as Alicyclobacillus acidocaldarius)
chain: MAIEPNRAADVHTHFLPTEVLEFLKREPRIQVDLERRAPDKEPFLTVEGRWSFELKRMFVDFEAFASAYRQAGIGLALVSPLPQLFVYHLPAEMGAQVAEVYNDALRDVLAPHRERFRPLATLPLADPTAAARELERRMDEGFVGAIVGPGVGEALIGDEAFWPLWEVADARRAVLFLHPLLHADPRAARLMLPNLVGVPWETTLAAAHLVLSGLLDRYPGARVLLAHGGGFLPYQIGRIEQGYDVWPQVRGRLQDRPTAYLRRMFYDNVLWSDAALRCLIDVVGADRVLAGSDFPFDLSAWPPRPGADVSVLAGGSGREGRLS
B12: 73 (protein, listed as Sphaerobacter thermophilus)
chain: MARIDAHAHAQPPEYLDALLASGRYESVRDAEGRIVVRERGSRFLTITPQMHHPEQRVAEMDEAGIDMQILSVTTPQVYFLQGQAAVDLARRCNDYLADIVRSYPTRFRALASVPLTADPDAAVREFVRCLDDLGMVGAIIGSNIDGRPIDDPAFDAFYAEADRRATTLFIHPMVPAGIEVMNPYALAPLVGFMFDTTLAVSRLIFSGFFERYPRVKVLVGHLGAAVPYLAGRLDIGWRSYSDCQGIPHPPTEYIRRLYLDTVSFHAPALRCALETVGPDRIVFGSDYPHVIGDVGGAIASIQQALPATTHDGVLGHTAAELFGVSA
B13: 74 (protein, listed as Ramlibacter tataouinensis)
chain: MATVIDVHTHMFTTKWLELLKKEGGQYNIQTRPDGQQEIFRGNTPVVIPQKGHFDWKLRIQHMDQAGIDVSVVSLTCPNVYWGGEDVSVRAAREANDNVAQAQTAYPDRIRWFASLPWEYMATVIDVHTHMFTTKWLELLKKEGGQYNIQTRPDGQQEIFRGNTPVVIPQKGHFDWKLRIQHMDQAGIDVSVVSLTCPNVYWGGEDVSVRAAREANDNVAQAQTAYPDRIRWFASLPWEYPQRAVEELERSCAQGAAGVMVLANVAGRSLTDPLFAPVWAEIDRRALPVLVHPTDPPGVDLMDMTKFDLSWSVGFMFDTTLAITRMIFEGFFDRYPNLRIIASHGGGTLPYLVGRFEKGDEVELASRRQMKRKPTDYLRHIHYDCITYNLGALQYLISVVGAGQVMFGTDWPHWVHDTRGAFANTAQLPQEQTRAVRGANAQRLFKL
B14: 62 (protein)
chain: MAVGGKNFRDVTDQVWCPKKRIEDMDREGVDIQVLSPIPVTFSYWAKPEEAESMARIQNDFIAETVLAYPDRFVGLGTVPMQDGETAIREMERCITELNLHGIEIGTNVNGKNLDDPSFIEFFRMAEKWQVPIFIHPWETLGRDRMPHHNFMYTVGMPSETALAAATLIWSGIMEKFPRLKVCFAHGGGSFPYILPRLDQGWKVWPHLRLTTHPPSYYAKKFYFDSLNYDPINLKYMIERFGHEKIFMGSDYPFLLREVDPGKVIDETASLSEEQKAAMLGGNAAEFLNIDIKKRGVAYAESTNT
modifications: Bacillus thuringiensis serovar pulsiensis
B15: 69 (protein, listed as Microbacterium testaceum)
chain: MATSTEGQDVTDVHAHLLMPGLHAEVERRVPDEVQAAADLELRRNGLASLQASGRMIGERFPRLTDVRARLAAMDEQGVDRQWVSPSPNHFYPWANEGLATWASGEANRLIAEHVALAPDRLVGLGVVPLQHPHLVVDALDDAVLGRGLAGVEISSFAGDVELSDERLESFWARAAELRAVVFLHPFGCSLDERLDRFYLSNTVGQPTENAVALSHLIFSGVLDRHPGLRLIAAHGGGYLPTAIGRSDRAWRVRPEARGCAHAPSTYLSKLWFDTVVHDERALRWLVEAAGADRVLLGSDFPFDMGLDDPVAFVRGAGLQDAEVSGILGGNAAELLRTRVHA

test: Saturation mutagenesis of SEQ ID NO:109: dicamba decarboxylation activity of point mutants (CO2 released), fold of backbone (Tables 7, 8, Megatable 1); conditions: decarboxylation activity (CO2 released) of point mutant vs unmutated backbone protein; backbone SEQ ID NO: 109

Row | Molecule | Fold Activity [fold]
1 | B1 | 1.1
2 | B2 | 1.5
3 | B3 | 1.1
4 | B4 | 1.7
5 | B5 | 1.8
6 | B6 | 1.3
7 | B7 | 1.2
8 | B8 | 0.9
9 | B9 | 2.4
10 | B10 | 1.6
11 | B11 | 1.7
12 | B12 | 1.2
13 | B13 | 1.4
14 | B14 | 1
15 | B15 | 1.3

Reference: US20160040149A1, “Compositions Having Dicamba Decarboxylase Activity and Methods of Use” (priority 2013, published 2016)
